First the molecules themselves.
B1: Ab19: monoclonal antibody binding proTGFβ1 complexes; VH SEQ ID NO: 234, VL SEQ ID NO: 15 (antibody, V domains shown)
VH: QVQLVESGGGVVQPGRSLRLSCAASGFTFSSFAMTWVRQAPGKGLEWVSAISGSGAATYFADSVKGRFTISRDNSKNTLYLQMNSLRAEDTAVYYCARVSSGHWDFDEWGQGTLVTVSS
VL: DIQLTQSPSSLSASVGDRVTITCRASQSISSYLNWYQQKPGKAPKLLIYAASNLQSGVPSRFSGSGSGTDFTLTISSLQPEDFATYYCQQTYTVPLTFGGGTKVEIK
B2: Ab18: monoclonal antibody binding proTGFβ1 complexes; VH SEQ ID NO: 232, VL SEQ ID NO: 15 (antibody, V domains shown)
VH: B1 VH with S31D, F32Y, T35V, R98T, E108Y
VL: B1 VL
B3: Ab14: monoclonal antibody binding proTGFβ1 complexes; VH SEQ ID NO: 224, VL SEQ ID NO: 223 (antibody, V domains shown)
VH: EVQLLESGGGLVQPGGSLRLSCAASGFTFSAYAMTWVRQAPGKGLEWVSAISGTGGSTYYADSVKGRFTISRDNSKNTLYLQMNSLRAEDTAVYYCARVSSGHWDFDYWGQGTLVTVSS
VL: B1 VL with L4M, N53S, T91V, T93D, V94P
B4: Ab11: monoclonal antibody binding proTGFβ1 complexes; VH SEQ ID NO: 216, VL SEQ ID NO: 15 (antibody, V domains shown)
VH: B3 VH with S30R, A31N, T35S, A50S, T54S, S57A
VL: B1 VL
B5: Ab15: monoclonal antibody binding proTGFβ1 complexes; VH SEQ ID NO: 226, VL SEQ ID NO: 15 (antibody, V domains shown)
VH: B3 VH with L5V, L11V, G16R, A31D, T35V, T54S, G56F, S57T
VL: B1 VL
B6: Ab16: monoclonal antibody binding proTGFβ1 complexes; VH SEQ ID NO: 228, VL SEQ ID NO: 15 (antibody, V domains shown)
VH: B3 VH with A31N, T35S, T54S, G56F, S57T
VL: B1 VL
B7: Ab17: monoclonal antibody binding proTGFβ1 complexes; VH SEQ ID NO: 230, VL SEQ ID NO: 15 (antibody, V domains shown)
VH: B1 VH with Q1E, V5L, R16G, E108Y
VL: B1 VL
B8: Ab12: monoclonal antibody binding proTGFβ1 complexes; VH SEQ ID NO: 212, VL SEQ ID NO: 15 (antibody, V domains shown)
VH: B1 VH with S31D, F32Y, T35V, A56F, A57T, F60Y, E108Y
VL: B1 VL
B9: Ab13: monoclonal antibody binding proTGFβ1 complexes; VH SEQ ID NO: 222, VL SEQ ID NO: 223 (antibody, V domains shown)
VH: B3 VH with S30A, A31D, G53S, T54F, G55A, G56S, S57A, T58I
VL: B1 VL with L4M, N53S, T91V, T93D, V94P
B10: Ab20: monoclonal antibody binding proTGFβ1 complexes; VH SEQ ID NO: 236, VL SEQ ID NO: 15 (antibody, V domains shown)
VH: B3 VH with T54S, S57V, F106Y
VL: B1 VL

Residue numbers refer to the chain shown, from its start. Values joined by “and” are separate entries in the source; they are usually repeats but may differ in a detail not shown here. Equal values may be shown once.

The target in the first assay is Matrix-associated proTGFβ1. Nature of the assay: Octet binding, ECM average of hLTBP1 and hLTBP3 complexes. Details: species or system human. The following applies: average KD of (B) and (C), read-out: (D) ECM AVRG. The source says:
(§1) Column (A) of the table provides monoclonal antibodies with discrete amino acid sequences. […] Columns (B), (C), (E) and (F) provide affinities of each of the listed antibodies, measured in KD, towards the antigen complex as indicated, respectively. […] Average KD values calculated from (B) and (C) are shown in the corresponding column (D), which collectively represents affinities of the antibodies to ECM- or matrix-associated proTGFβ1 complexes. Similarly, Average KD values calculated from (E) and (F) are shown in the corresponding column (G), which collectively represents affinities of the antibodies to cell-surface or cell-associated proTGF complexes. Finally, relative ratios between the average KD values from columns (D) and (G) are expressed as fold bias” in column (H). Thus, the greater the numerical of column (H) is, the greater bias exists for the particular antibody, when comparing binding preferences of the antibody for matrix-associated complexes to cell-surface complexes. This is one way of quantitatively representing and comparing inherent bias of antibodies to their target complexes. Such analyses may be useful in guiding the selection process for a candidate antibody for particular therapeutic use.
In general terms: Biolayer interferometry detects binding as a change in optical thickness at a sensor tip.
As to B1, the Kd was found to be 172 pM.

As to B2, the Kd came out at 284 pM.

As to B3, the Kd was determined as 341 pM.

In the case of B4, the Kd worked out at 160 pM.

As to B5, the Kd is 159 pM.

Regarding B6, the Kd was found to be 156 pM.

For the molecule B7, the Kd was 191 pM.

Turning to B8, the Kd came to 170 pM.

Consider B9, for which the Kd came out at 262 pM.

As for B10, the Kd turned out to be 162 pM.

The subject of a further assay is Cell-associated proTGFβ1. Nature of the assay: Octet binding, cell average of hGARP and hLRRC33 complexes. Details: species or system human. The following applies: average KD of (E) and (F), read-out: (G) Cell AVRG.
Description: as §1
Regarding B1, the Kd was 5950 pM.

On to B2, for which the Kd worked out at 6260 pM.

As for B3, the Kd came out at 5920 pM.

For B4, the Kd amounted to 698 pM.

As for B5, the Kd was determined as 3860 pM.

Turning to B6, the Kd stood at 2400 pM.

In the case of B7, the Kd is 4640 pM.

For the molecule B8, the Kd was determined as 3890 pM.

Take B9: the Kd was found to be 5700 pM.

For B10, the Kd was 714 pM.

A further assay concerns Matrix-associated proTGFβ1 vs Cell-associated proTGFβ1. Nature of the assay: Octet binding, matrix vs cell bias (G/D). Also noted: species or system human. The following applies: ratio of cell average KD to ECM average KD.
Description: as §1
As to B1, the “(H) G/D (fold bias)” value was 34.47 fold.

Regarding B2, the “(H) G/D (fold bias)” value is 22.00 fold.

Regarding B3, the “(H) G/D (fold bias)” value was determined as 17.36 fold.

For B5, the “(H) G/D (fold bias)” value came out at 24.25 fold.

B6: the “(H) G/D (fold bias)” value is 15.307 fold.

For B7, the “(H) G/D (fold bias)” value amounted to 24.288 fold.

For B8, the “(H) G/D (fold bias)” value amounted to 22.897 fold.

For B9, the “(H) G/D (fold bias)” value worked out at 21.71 fold.

The next assay addresses Matrix-associated proTGFβ1. Nature of the assay: MSD-SET binding, ECM average of hLTBP1 and hLTBP3 complexes. Details: species or system human. The following applies: average KD of (B) and (C), read-out: (D) ECM AVRG. From the text: (§2) Column (A) of the table provides monoclonal antibodies with discrete amino acid sequences. […] Columns (B), (C), (E) and (F) provide affinities of each of the listed antibodies, measured in KD, towards the antigen complex as indicated, respectively. […] Similarly, Average KD values calculated from (E) and (F) are shown in the corresponding column (G), which collectively represents affinities of the antibodies to cell-surface or cell-associated proTGF complexes. Finally, relative ratios between the average KD values from columns (D) and (G) are expressed as fold bias” in column (H). Thus, the greater the numerical of column (H) is, the greater bias exists for the particular antibody, when comparing binding preferences of the antibody for matrix-associated complexes to cell-surface complexes. This is one way of quantitatively representing and comparing inherent bias of antibodies to their target complexes. Such analyses may be useful in guiding the selection process for a candidate antibody for particular therapeutic use. Select antibodies of the present disclosure, as measured by MSD-SET, show context-bias (i.e., greater than five-fold bias) or unbias (i.e., less than 5-fold bias) toward matrix-associated complexes over cell-associated complexes. […] Without being bound by a particular theory, the differences in the kinetics of the assays and/or differences in the nature of recombinant proteins may account for the noticeable differences seen in Ab19 binding to hGARP complexes observed in the above Octet assay (see Table 6) compared to the below MSD-SET assay (see Table 7 below). For example, the Octet assay measures kinetic on and off rates, while the MSD-SET assay measures binding at equilibrium. In addition, the recombinant antibodies used in the Octet assay were expressed as IgG1 antibodies in yeast, while the antibodies used in the MSD assay were expressed as IgG4 antibodies in mammalian cells.
As to B1, the Kd came out at 2840 pM.

Regarding B8, the Kd is 720 pM.

Take B10: the Kd was 200 pM.

A further assay relates to Cell-associated proTGFβ1. In words: MSD-SET binding, cell average of hGARP and hLRRC33 complexes. Details: species or system human. The note with it: average KD of (E) and (F), read-out: (G) Cell AVRG.
Description: as §2
In the case of B1, the Kd is 4750 pM.

Consider B4, for which the Kd is 4650 pM.

With B8, the Kd was 2450 pM.

The next assay concerns Matrix-associated proTGFβ1 vs Cell-associated proTGFβ1. Nature of the assay: MSD-SET binding, matrix vs cell bias (G/D). Details: species or system human. The following applies: ratio of cell average KD to ECM average KD.
Description: as §2
Consider B1, for which the “(H) G/D (fold bias)” value was 1.675 fold and 1.68 fold.

As for B4, the “(H) G/D (fold bias)” value turned out to be 3.87 fold.

In the case of B8, the “(H) G/D (fold bias)” value is recorded as 3.40 fold.

As to B10, the “(H) G/D (fold bias)” value turned out to be 6.75 fold.

The values above are taken from patent publication US20210340238A1, “TGFß1 INHIBITORS AND USE THEREOF” (Scholar Rock, Inc., priority 2018, published 2021).
